Data reported in patent US9125872B2, “Polyethylene glycol aerogels for targeted delivery of pharmaceutical drubs” (priority 2009, dated 2015).

Columns and labels:
Format in all cases: physicochemical
[1] = Solubility of purified solid protein-PEG conjugates in water
[2] = Drug loading and biologics encapsulation in PEG aerogel granules
Method: To 1 gram PEG [MW=2,000,000] dissolved in 100 ml anhydrous toluene, 100 mg [0.1 gram] BSA powder is dispersed and the mixture was stirred at 38-45° C. for 30-60 minutes to allow coating/adsorption of soluble PEG molecules on solid BSA particles. 0.2 g benzoyl peroxide was heated in 15 ml anhydrous toluene at 85° C. for 10 minutes. After cooling to 76° C., the catalyst solution was added to the warm PEG-BSA suspension at 38° C., which raised the temperature to 43° C., and mixing was continued for 15 minutes. The solution was poured into a mold and stored in a glove box. Toluene was later removed from the gel by solvent extraction with supercritical carbon dioxide fluid to obtain dry solid aerogel encapsulating BSA fine particles.
5 ml (=2.6 g) granules from PEG aerogel #2 (2009 cold preparation) were desiccated overnight to remove any absorbed vapors during storage.
Gemzar [Eli Lilly, Indiana] solution was made by dissolving 200 mg Gemcitabine HCl in 5 ml 0.9% NaCl [sodium chloride] aqueous solution. 2.3 ml (0.61 g) PEG aerogel #1 [“hot” preparation, 2009] granules were desiccated overnight to remove any absorbed vapors during storage. […] The mixture was placed in a desiccator to remove excess water and render dry loaded aerogel granules.
BSA protein (MW=66,000) was used as an example of large biologic molecules to be encapsulated in PEG aerogel during the gelation process. The encapsulation method is described in the aerogel preparation section.

[3] = Sequential time release of BSA encapsulated in PEG aerogel in distilled water (UV-spectroscopy); conditions: room temperature
Method: As an example of encapsulation and release of pharmaceutical biologics, release tests conducted using one sample weighing 13 mg PEG aerogel encapsulating 1 mg BSA protein in 10 ml distilled water at room temperature. Small solution samples were withdrawn at indicated time intervals above for BSA analysis with UV-spectroscopy at 280 and 260 nm wavelength. Results are calculated and tabulated.

[4] = of the PEG aerogel granules carrying the drug/biologic

BSA-PEG: BSA surface-linked via EDC to PEG only aerogel
Solubility in Water ([1]; Body Temperature (37° C.)): No
Solubility in Water ([1]; Body Temperature (37° C.), listed as aerogel-BSA “conjugate”): water insoluble
Solubility in Water ([1]; Room Temperature (23° C.)): No

bovine serum albumin [BSA Protein]
Aerogel Density [2, 4]: 0.30 g/cc
Aerogel Porosity [2, 4]: 75% vol %
Loading/Encapsulation ([2]; weight of solution (or BSA) per g PEG aerogel): 77 mg/g Aerogel
Loading/Encapsulation ([2]; weight of solution (or BSA) per ml PEG aerogel): 23 mg/ml Aerogel
Released BSA ([3]; 15 minutes, 13 mg PEG aerogel with 1 mg BSA in 10 ml distilled water): 0.19 mg
Cumulative Percent Release ([3]; 15 minutes, distilled water): 19 % of 1 mg
Cumulative Release ([3]; 15 minutes, distilled water): 0.19 mg
Released BSA ([3]; 3 hours (increment), distilled water): 0.22 mg
Cumulative Percent Release ([3]; 3 hours, distilled water): 41 % of 1 mg
Cumulative Release ([3]; 3 hours, distilled water): 0.41 mg
Released BSA ([3]; 20 hours (increment), distilled water): 0.26 mg
Cumulative Percent Release ([3]; 20 hours, distilled water): 67 % of 1 mg
Cumulative Release ([3]; 20 hours, distilled water): 0.67 mg

BSA-PEG-N: BSA linked to aerogel of PEG + Bis(3-aminopropyl) terminated PEG 1,500/2,100
Solubility in Water ([1]; Body Temperature (37° C.)): No
Solubility in Water ([1]; Room Temperature (23° C.)): No

BSA-PEG-O: BSA linked to aerogel of PEG + Diglycidylether terminated PEG, 1000
Solubility in Water ([1]; Body Temperature (37° C.)): No
Solubility in Water ([1]; Room Temperature (23° C.)): No
